From patent US20180037654A1 (ADURO BIOTECH HOLDINGS EUROPE B V, published 2018)

Columns and labels:
[1] = molecular target: T1, human CTLA-4 (Y166G and Y183G) expressed on CHO-K1.hCTLA-4 cells (human, UniProt P16410 36-223); assay: CELISA, blockade of biotinylated hCD80/Fc binding to CHO-K1.hCTLA-4 cells
Protocol: CHO-K1.hCTLA-4 cells were seeded in tissue culture plates and incubated at 37° C., 5% CO₂ and 95% humidity in culture medium. Once the cells were confluent culture medium was removed and cells were incubated for 1 hour with the humanized hCTL4.27 antibody variants (10 μg/ml and dilutions thereof) at 37° C., 5% CO₂ and 95% humidity. […] Cells were then washed with PBST followed by addition of Streptavidin-HRP conjugate on the cells, which was incubated for 1 hour at 37° C., 5% CO₂ and 95% humidity. […] Reactions were stopped with 0.5 M H₂SO₄ and absorbances were read at 450 and 610 nm. […] IC50 values represent the concentration at which half of the inhibition is observed.
Target sequence in this assay (P16410 36-223 Y201G/Y218G limits assumed): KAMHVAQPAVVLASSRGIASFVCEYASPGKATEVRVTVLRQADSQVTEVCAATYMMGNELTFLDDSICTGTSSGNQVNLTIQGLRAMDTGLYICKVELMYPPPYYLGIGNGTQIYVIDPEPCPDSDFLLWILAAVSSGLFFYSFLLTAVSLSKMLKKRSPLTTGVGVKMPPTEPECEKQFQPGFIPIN

[2] = molecular target: T1, human CTLA-4 (Y166G and Y183G) …; assay: CELISA on CHO-K1.hCTLA-4 cells
Protocol: Binding of the humanized antibodies to hCTLA-4 was studied in CELISA format. CHO-K1.hCTLA-4 cells were seeded in culture medium (DMEM-F12 (Gibco) with 10% Fetal Bovine Serum (Hyclone) and Pen/Strep (Gibco)) in tissue culture plates and cultured at 37° C., 5% CO₂ and 95% humidity until they were confluent. Subsequently, culture medium was removed and cells were incubated for 1 hour at 37° C., 5% CO₂ and 95% humidity with purified hCTLA-4 antibodies (10 μg/ml and dilutions thereof). Next, cells were washed with PBS/0.05% Tween (PBST) and incubated for 1 hour at 37° C., 5% CO₂ and 95% humidity with goat-anti-human IgG-HRP (Southern Biotechnology) or goat-anti-mouse IgG-HRP (Southern Biotechnology). Subsequently, cells were washed 3 times with PBST and anti-hCTLA-4 immunoreactivity was visualized with TMB Stabilized Chromagen (Invitrogen). Reactions were stopped with 0.5 M H₂SO₄ and absorbances were read at 450 and 610 nm.
Target sequence in this assay (P16410 36-223 Y201G/Y218G limits assumed): as above

Mou-Hum-CTLA-4 = molecular target: T2, Mou-Hum-CTLA-4 (mouse/human chimera); assay: CELISA on CHO-K1 cells transiently transfected with Mou-Hum-CTLA-4, panel Mouse/Human
T2 construct: Mouse residues on strand 1, 2, 5 and 6 and human residues on strand 3, 4, 7 and 8; transiently expressed on CHO-K1 cells; also called mouse-human variant; mouse-human exchange mutant
T2 chain: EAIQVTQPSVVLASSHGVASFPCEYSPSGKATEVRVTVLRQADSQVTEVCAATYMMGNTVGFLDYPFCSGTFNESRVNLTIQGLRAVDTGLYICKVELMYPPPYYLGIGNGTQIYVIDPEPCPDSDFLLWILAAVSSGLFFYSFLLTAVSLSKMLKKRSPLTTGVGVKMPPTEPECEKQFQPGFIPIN
Protocol: The cDNAs encoding these constructs (SEQ ID NO: 41 and 43, respectively) were synthesized and subcloned into the pCI-Neo vector (GeneArt). […] To this end CHO-K1 cells were transiently transfected, using Lipofectamine 2000 (Invitrogen), with the pCI-Neo vectors expressing human CTLA-4 (hCTLA-4), mouse CTLA-4 (mCTLA-4) (SEQ ID NO: 45), Hum-Mou-CTLA-4, and Mou-Hum-CTLA-4 respectively. The transfected cells were cultured at 37° C., 5% CO₂ and 95% humidity in medium (DMEM-F12 (Gibco) with 5% New Born Calf serum (Biowest) and Pen/Strep (Gibco)) until confluent. Subsequently, cells were trypsinized and seeded in tissue culture plates and cultured at 37° C., 5% CO₂ and 95% humidity in culture medium until confluent. Then, culture medium was removed and cells were incubated for 1 hour at 37° C., 5% CO₂ and 95% humidity with hCTLA-4 antibodies. Next, cells were washed with PBS/0.05% Tween (PBST) and incubated for 1 hour at 37° C., 5% CO₂ and 95% humidity with 1:2,000 goat-anti-human IgG-HRP (Jackson Immunoresearch). After that, cells were washed 3 times with PBST and anti-CTLA-4 immunoreactivity was visualized with TMB Stabilized Chromagen (Invitrogen).

[3] = molecular target: T1, human CTLA-4 (Y166G and Y183G) …; assay: CELISA on CHO-K1.hCTLA-4 cells (Example 6)
Protocol: (§1) In short, CELISA for hCTLA-4 binding was performed on CHO-K1.hCTLA-4 cells. […] Once the cells were confluent culture medium was removed and cells were incubated for 1 hour with the hCTL4.27 antibodies and control antibodies (10 μg/ml and dilutions thereof) at 37° C., 5% CO₂ and 95% humidity. […] Cells were then washed with PBST followed by addition of Streptavidin-HRP conjugate on the cells, which was incubated for 1 hour at 37° C., 5% CO₂ and 95% humidity. […] Reactions were stopped with 0.5 M H₂SO₄ and absorbances were read at 450 and 610 nm. IC50 values represent the concentration at which half of the inhibition is observed.

[4] = molecular target: T1, human CTLA-4 (Y166G and Y183G) …; assay: CELISA, blockade of biotinylated hCD80/Fc binding to CHO-K1.hCTLA-4 cells (Example 6)
Protocol: as §1

[5] = molecular target: T1, human CTLA-4 (Y166G and Y183G) …; assay: CELISA, blockade of biotinylated hCD86/Fc binding to CHO-K1.hCTLA-4 cells (Example 6)
Protocol: as §1

B1: hCTLA4.27H3L3 (antibody, human IgG4 S228P, kappa, V domains shown)
VH: EVQLVQSGAVVAKPGSSVKVSCKASGYSFTTYWMNWVRQAPGQGLEWMGMIHPSDSETSLNQAFKDRVTITADKSTSTAYMELSSLTSEDTAVYYCARMGRRNPYYFDYWGQGTTVTVSS
VL: DIQMTQSPSSLSASVGDTVTITCRPSENLYTNLAWYQQKPGKAPKLLLYGATNLADGVPSRFSGSGSGTDYTLTISSLQSEDFATYYCQHLWGTPFTFGQGTKLEIKR
notes: Humanized, human IgG4 (S228P) kappa; H3 read as hCTLA4.27VH3, L3 as hCTLA4.27VL3
Q: Which IC50 [1] does the source give for B1 here?
A: The IC50 was 3.37 nM.

Q: And the EC50 [2]?
A: Its EC50 is 0.101 nM.

B2: hCTLA4.27H2L2 (antibody, human IgG4 S228P, kappa, V domains shown)
VH: EVQLVQSGAVLVKPGASVKVSCKASGYSFTTYWMNWVRQRPGKGLEWIGMIHPSDSETSLNQAFKDKVTITADESTSTAYMQLSSLRSEDTAVYYCARMGRRNPYYFDYWGQGTTVTVSS
VL: DIQMTQSPSSLSASVGDRVTITCRPSENLYTNLAWYQQKPGKAPKLLIYGATNLADGVPSRFSGSGSGTEFSLSISSLQPEDFATYYCQHLWGTPFTFGGGTKVEIKR
notes: Humanized, human IgG4 (S228P) kappa; H2 read as hCTLA4.27VH2, L2 as hCTLA4.27VL2
Q: B2 was tested. Which IC50 [1] did it give?
A: The IC50 was 2.59 nM.

Q: What about the EC50 [2] of the same binder?
A: The EC50 was 0.044 nM.

B3: hCTLA4.27H4L2 (antibody, human IgG4 S228P, kappa, V domains shown)
VH: EVQLVQSGAEVKKPGASVKVSCKASGYSFTTYWMNWVRQAPGQGLEWMGMIHPSDSETSLNQAFKDRVTMTRDTSTSTVYMELSSLRSEDTAVYYCARMGRRNPYYFDYWGQGTLVTVSS
VL: DIQMTQSPSSLSASVGDRVTITCRPSENLYTNLAWYQQKPGKAPKLLIYGATNLADGVPSRFSGSGSGTEFSLSISSLQPEDFATYYCQHLWGTPFTFGGGTKVEIKR
notes: Humanized, human IgG4 (S228P) kappa; H4 read as hCTLA4.27VH4, L2 as hCTLA4.27VL2
Q: Which IC50 [1] does the source give for B3 here?
A: The IC50 was 2.52 nM.

Q: What about the EC50 [2] of the same binder?
A: Its EC50 is 0.047 nM.

B4: hCTLA4.27H6L2 (antibody, human IgG4 S228P, kappa, V domains shown)
VH: EVQLLESGPELVRPGSSVKISCKASGYSFTTYWMNWVKQRPGKGLEWIGMIHPSDSETSLNQAFKDKVKLTAATSASIAYLEFSSLRNEDSAVYYCARMGRRNPYYFDYWGQGTLVTVSS
VL: DIQMTQSPSSLSASVGDRVTITCRPSENLYTNLAWYQQKPGKAPKLLIYGATNLADGVPSRFSGSGSGTEFSLSISSLQPEDFATYYCQHLWGTPFTFGGGTKVEIKR
notes: Humanized, human IgG4 (S228P) kappa; H6 read as hCTLA4.27VH6, L2 as hCTLA4.27VL2
Q: What does the source list for B4?
A: IC50 [1]: 1.8 nM; EC50 [2]: 0.027 nM

B5: hCTLA4.27H2L5 (antibody, human IgG4 S228P, kappa, V domains shown)
VH: EVQLVQSGAVLVKPGASVKVSCKASGYSFTTYWMNWVRQRPGKGLEWIGMIHPSDSETSLNQAFKDKVTITADESTSTAYMQLSSLRSEDTAVYYCARMGRRNPYYFDYWGQGTTVTVSS
VL: DIQMTQAPSSLSASVGDRVTITCRPSENLYTNLAWYQQKPGKAPKLLLYGATNLADGVPSRFSGSGSGTDYTLTISSLQAEDFATYYCQHLWGTPFTFGGGTKLEIKR
notes: Humanized, human IgG4 (S228P) kappa; H2 read as hCTLA4.27VH2, L5 as hCTLA4.27VL5
Q: With B5 as the binder, how does the IC50 [1] read?
A: The IC50 was 2.72 nM.

Q: And the EC50 [2]?
A: The EC50 was 0.045 nM.

B6: hCTLA4.27H4L1 (antibody, human IgG4 S228P, kappa, V domains shown)
VH: EVQLVQSGAEVKKPGASVKVSCKASGYSFTTYWMNWVRQAPGQGLEWMGMIHPSDSETSLNQAFKDRVTMTRDTSTSTVYMELSSLRSEDTAVYYCARMGRRNPYYFDYWGQGTLVTVSS
VL: DIQMTQSPSSLSASVGDRVTITCRPSENLYTNLAWYQQKPGKAPKLLLYGATNLADGVPSRFSGSGSGTDYTLTISSLQPEDFATYYCQHLWGTPFTFGQGTKLEIKR
notes: Humanized, human IgG4 (S228P) kappa; H4 read as hCTLA4.27VH4, L1 as hCTLA4.27VL1
Q: Which results are given for B6?
A: IC50 [1]: 3.33 nM; EC50 [2]: 0.07 nM

B7: hCTLA4.27H3L5 (antibody, human IgG4 S228P, kappa, V domains shown)
VH: EVQLVQSGAVVAKPGSSVKVSCKASGYSFTTYWMNWVRQAPGQGLEWMGMIHPSDSETSLNQAFKDRVTITADKSTSTAYMELSSLTSEDTAVYYCARMGRRNPYYFDYWGQGTTVTVSS
VL: DIQMTQAPSSLSASVGDRVTITCRPSENLYTNLAWYQQKPGKAPKLLLYGATNLADGVPSRFSGSGSGTDYTLTISSLQAEDFATYYCQHLWGTPFTFGGGTKLEIKR
notes: Humanized, human IgG4 (S228P) kappa; H3 read as hCTLA4.27VH3, L5 as hCTLA4.27VL5
Q: Which IC50 [1] does the source give for B7 here?
A: The IC50 was 3.67 nM.

Q: And the EC50 [2]?
A: Its EC50 is 0.082 nM.

B8: hCTLA4.27H4L3 (antibody, human IgG4 S228P, kappa, V domains shown)
VH: EVQLVQSGAEVKKPGASVKVSCKASGYSFTTYWMNWVRQAPGQGLEWMGMIHPSDSETSLNQAFKDRVTMTRDTSTSTVYMELSSLRSEDTAVYYCARMGRRNPYYFDYWGQGTLVTVSS
VL: DIQMTQSPSSLSASVGDTVTITCRPSENLYTNLAWYQQKPGKAPKLLLYGATNLADGVPSRFSGSGSGTDYTLTISSLQSEDFATYYCQHLWGTPFTFGQGTKLEIKR
notes: Humanized, human IgG4 (S228P) kappa; H4 read as hCTLA4.27VH4, L3 as hCTLA4.27VL3
Q: What does the source list for B8?
A: IC50 [1]: 3.26 nM; EC50 [2]: 0.051 nM

B9: hCTLA4.27H4L5 (antibody, human IgG4 S228P, kappa, V domains shown)
VH: EVQLVQSGAEVKKPGASVKVSCKASGYSFTTYWMNWVRQAPGQGLEWMGMIHPSDSETSLNQAFKDRVTMTRDTSTSTVYMELSSLRSEDTAVYYCARMGRRNPYYFDYWGQGTLVTVSS
VL: DIQMTQAPSSLSASVGDRVTITCRPSENLYTNLAWYQQKPGKAPKLLLYGATNLADGVPSRFSGSGSGTDYTLTISSLQAEDFATYYCQHLWGTPFTFGGGTKLEIKR
notes: Humanized, human IgG4 (S228P) kappa; H4 read as hCTLA4.27VH4, L5 as hCTLA4.27VL5
Q: B9 was tested. Which IC50 [1] did it give?
A: The IC50 was 3.08 nM.

Q: And the EC50 [2]?
A: The EC50 was 0.061 nM.

B10: 10D1 (antibody, V domains shown)
VH: QVQLVESGGGVVQPGRSLRLSCAASGFTFSSYTMHWVRQAPGKGLEWVTFISYDGNNKYYADSVKGRFTISRDNSKNTLYLQMNSLRAEDTAIYYCARTGWLGPFDYWGQGTLVTVSS
VL: not shown
Q: For B10, which “EC50 (read off the curve)” value (Mou-Hum-CTLA-4) is on record?
A: The value was roughly 0.07 nM.

B11: hCTLA4.27A.C1 (antibody, V domains shown)
VH: QVQLQQPGAVLVRPGVSVKLSCKASGYSFTTYWMNWVKQRPGQGLEWIGMIHPSDSETSLNQAFKDKATLTIDKSSSTAYMQLSSPTSEDSAVYFCARMGRRNPYYFDYWGQGTTLTVSS
VL: DIQMTQSPVSLSVSVGETVTITCRPSENLYTNLAWYQQKQGKSPQLLVYGATNLADGVPSRFSGSGSGTQYSLRINSLQSEDFGTYYCQHLWGTPFTFGSGTKLELK
notes: Chimeric: mouse variable domains on human IgG1, kappa; also called hCTLA4.27A chimeric hIgG1
Q: How did the EC50 [3] turn out when B11 was run?
A: The EC50 was 0.034 nM.

Q: What about the IC50 [4] of the same binder?
A: The IC50 was 1.45 nM.

Q: What about the IC50 [1] of the same binder?
A: Its IC50 is 1.53 nM.

Q: What about the EC50 [2] of the same binder?
A: Its EC50 is 0.022 nM.

Q: What about the IC50 [5] of the same binder?
A: Its IC50 is 1.18 nM.
